The source of these data is patent US20240287172A1 (SCIRHOM, published 2024).

Substitutions are numbered along the chain they refer to.

First the molecules themselves.
T1: hiR2-FL-P533-T7 (deletion of P533) (human, UniProt Q6PJF5 1-856)
T1 construct: single residue deletion, not a substitution; on MEF-DKO cells
T1 sequence: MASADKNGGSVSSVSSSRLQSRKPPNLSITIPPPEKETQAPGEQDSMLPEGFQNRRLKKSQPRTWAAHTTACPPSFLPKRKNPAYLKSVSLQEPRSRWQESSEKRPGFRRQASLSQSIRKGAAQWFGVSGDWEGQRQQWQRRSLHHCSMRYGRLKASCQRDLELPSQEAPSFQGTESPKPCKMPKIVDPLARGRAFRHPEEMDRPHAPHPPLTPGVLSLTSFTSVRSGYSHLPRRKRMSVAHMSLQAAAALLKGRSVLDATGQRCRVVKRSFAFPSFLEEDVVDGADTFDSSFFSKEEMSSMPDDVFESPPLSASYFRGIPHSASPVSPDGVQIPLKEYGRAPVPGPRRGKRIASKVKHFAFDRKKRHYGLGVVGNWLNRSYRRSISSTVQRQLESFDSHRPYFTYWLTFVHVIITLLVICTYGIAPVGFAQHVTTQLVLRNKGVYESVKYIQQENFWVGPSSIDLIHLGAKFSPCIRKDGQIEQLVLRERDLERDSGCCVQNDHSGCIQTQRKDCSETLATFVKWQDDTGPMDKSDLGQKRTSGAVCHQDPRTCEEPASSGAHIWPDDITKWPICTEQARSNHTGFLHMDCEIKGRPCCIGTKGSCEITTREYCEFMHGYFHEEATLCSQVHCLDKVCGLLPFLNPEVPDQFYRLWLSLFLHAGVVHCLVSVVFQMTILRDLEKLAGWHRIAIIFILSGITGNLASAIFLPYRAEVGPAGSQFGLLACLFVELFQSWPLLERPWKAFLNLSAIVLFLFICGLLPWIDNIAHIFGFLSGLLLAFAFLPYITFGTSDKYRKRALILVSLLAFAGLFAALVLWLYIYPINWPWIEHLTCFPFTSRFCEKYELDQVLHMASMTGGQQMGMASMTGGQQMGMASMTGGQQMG

B1: antibody 34 (antibody, V domains shown)
VH: QVTLKESGPGILQPSQTLSLTCSFSGFSLSTFSLGVGWIRQSSGKGLEWLAHIWWDDEKYYNPALKSRLTISKDTSKNQVFLKIANVDAADTATYYCARAYYSKSYYALDYWGQGTSVTVSS
VL: DIQMTQSPSSLSASLGERVSLTCRASQEISGYLSWLQQKPDGTIKRLIYAASTLDSGVPKRFSGSRSGSDYSLAISSLESEDFADYYCLQYANFPFTFGSGTKLEIK
notes: mouse IgG, kappa light chain; also called clone #34; purified antibody 34
B2: antibody 5 (antibody, V domains shown)
VH: QVTLKESGPGILQPSQTLSLTCSFSGFSLSTFGMGVGWIRQPSGKGLEWLAHIWWDDEKYYNSALKSRLTISKATSKNQAFLKIANVDTADTATYYCARISNYGSNYWYFNVWGTGTTVTVSS
VL: QVVLTQSPALMSASPGEKVTMTCSAGSSVSCMYWYQQKPGSSPRVLIYDTSNLASGVPARFTGSGSGTSYSLTISRMEAEDAASYYCQQWNSYPLTFGAGTKLELK
notes: mouse IgG, kappa light chain; also called clone #5; purified antibody 5
B3: antibody 44 (antibody, V domains shown)
VH: B2 VH with G44E, E58D, S63P, A74D, A80I, A85T, D91E, A98S, S101G, N111D
VL: QIVLTQSPAVMSASPGEKVTMTCTASSSVYYMYWYQQTPGSSPRLLIYDTSNLASGVPVRFSGSGSGTSYSLTISRMEAEDAATYYCQQWNTYPLTFGAGTKLELK
notes: mouse IgG, kappa light chain; also called clone #44; purified antibody 44
B4: antibody 42 (antibody, V domains shown)
VH: B2 VH with F24L, M34R, S63P, A74D, A80V, K83R, S101Q, N111D
VL: LIVLTQSPAIMSASPGEKVTMTCGATSRISYMFWYQQKPGSSPRVLIYDTSNLASGVPVRFSGSGSGTSYSLTISRVEAEDVATYYCQQWNSYPLTFGAGTKLELK
notes: mouse IgG, kappa light chain; also called clone #42; purified antibody 42
B5: antibody 43 (antibody, V domains shown)
VH: B2 VH with T3A, P42S, H52N, E58D, S63P, A74D, T75A, S101G, N111D
VL: B4 VL with L1Q, K18R, G24S, T26N, F33Y, V45L, V77M, V82A, Y86N, N91S
notes: mouse IgG, kappa light chain; also called clone #43; purified antibody 43
B6: antibody 22 (antibody, V domains shown)
VH: B2 VH with A80V
VL: B2 VL with C31Y, S84T
notes: mouse IgG, kappa light chain; also called clone #22; purified antibody 22
B7: antibody 16 (antibody, V domains shown)
VH: QVTLKESGPGILQPSQTLSLTCSFSGFSLSTFALGVGWIRQPSGRGLEWLAHIWWDDDKYYNPALKSRLTISKDTSKNHVFLKIANVDTADTATYYCARITTYYYGMDYWGQGTSVTVSS
VL: DIVLSQSPATLSVTPGDSVSLFCRASQSIGNHLHWYQQESHASPRLLIKYASQSISGIPSRFSGSGSGTDFTLSINSVETEDFGMYFCQQSYNWPLTFGAGTKLELK
notes: mouse IgG, kappa light chain; also called clone #16; purified antibody 16
B8: antibody 3 (antibody, V domains shown)
VH: QVTLKESGPGILQPSQTLSLTCSFSGFSLTTFAMGIGWVRQPSGKGLEWLAHIWWDGEKYNNPVLKSRLTISKDTSKNQVFLRIANVDTPDTATYYCARISSIYYIIDNWGQGTSVTVSS
VL: B7 VL with S5T, D17H, F22S, G30S, H32N, Q38K, E39K, A42E, A51V
notes: mouse IgG, kappa light chain; also called clone #3; purified antibody 3

The assay has as its target T1, hiR2-FL-P533-T7 (deletion of P533). As to the kind of experiment: FACS on MEF-DKO cells.
As to B1, the binding result was “no binding (tested: 3 µg/ml)”.

In the case of B2, the binding result is recorded as “no binding (tested: 3 µg/ml)”.

Take B3: the binding result is reported as “no binding (tested: 3 µg/ml)”.

On to B4, for which the binding result was “no binding (tested: 3 µg/ml)”.

Regarding B5, the binding result was “no binding (tested: 3 µg/ml)”.

As for B6, the binding result is “no binding (tested: 3 µg/ml)”.

With B7, the binding result was “no binding (tested: 3 µg/ml)”.

B8: the binding result is on record as “no binding (tested: 3 µg/ml)”.
